Measured values published in patent US12637502B2, “Netrin G1 polypeptides” (Institute For Cancer Research, priority 2019, dated 2026).

How the values were obtained:
[1] = test system: CAFs; test: Cytokine secretion by CAFs treated with sNG1 or NetG1 peptides (ELISA); assay type: cell-based; conditions: CAFs treated 7 days, media conditioned 2 days, vs CON
Experimental: 1.6×10^5 Control (CON) or NetrinG1 Ligand knockdown (NGL1 KD) CAFs were plated into 24 well plates and allowed to produce matrices in the presence of 50 μg/mL of ascorbic acid and were either untreated or treated with either soluble NetrinG1 (sNG1), NetG1 peptide corresponding to a domain known to engage with NGL1 (NPYMSNNE; SEQ ID NO:26; (FITC)—Ba-Asn-Pro-Tyr-Met-Ser-Asn-Asn-Glu-(NH2)), hypothesized to modestly prevent NetG1/NGL1 interaction (peptide), or a modified NetG1 peptide (NPTMSNNE; SEQ ID NO:27; (FITC)—Ba-Asn-Pro-Thr-Met-Ser-Asn-Asn-Glu-(NH2)) suspected to strongly prevent NetG1/NGL1 engagement (mutant), for 7 days. […] The media was then replaced with serum- and glutamine-free media and CAFs were allowed to condition the media for 2 days. Conditioned media was collected from each well and subjected to ELISA for the measurement of cytokine (TGF-β, IL-6, and IL-8) secretion. […] 01, *** p<. 001, **** p<. 0001. N=3-6.

[2] = test system: CAF EVs; test: Clustering of CAF-secreted EVs treated after collection; conditions: CAF EVs incubated with the agent following their collection
[3] = test system: virus infected neurons plated onto a CAF culture bed; test: Heterotypic neuron-CAF functional synapse formation (virus spread into CAFs); assay type: cell-based; conditions: FIG. 3B/3D
Experimental: (§1) Viral transmission was used as a test to investigate the formation of functional synapses. […] The same experiment, as in Panel A, was conducted, except that virus (red) infected neurons (green) were plated onto a CAF culture bed (evident in transmitted microscopy images shown in bottom panels) to assess heterotypic neuron-CAF functional synapse formation (evidence by red virus spread into CAFs) while untreated (left) or treated with recombinant NGL1 (middle) or NetG1 (right) (Panel B).

[4] = test system: CAFs; test: CAF blebbing under 3D conditions; assay type: cell-based, human
From the text: The phenotype is believed to indicate fibroblastic function after NGL1 engagement from other cells (like tumor cells). Similar effects were observed when cancer cells were co-cultured with CAFs using CAF-derived matrices as culturing scaffolds.

[5] = test system: PDAC cancer cells; test: Rescue of starvation-induced death of PDAC cancer cells by CAF-produced EVs; assay type: cell-based
From the text: PDAC cells die in the absence of nutrition but can be rescued using EVs secreted by intact CAFs. If CAFs are deficient in NetG1 expression, the resultant EVs fail to rescue PDAC cells from starvation. […] The pharmaceutical agents set forth herein will prevent the NetG1/NGL1 engagement and, thus, serve as therapeutics that will assure PDAC cells will not survive under nutritional stress as in vivo.

[6] = test system: CAFs; test: EV production by CAFs treated with recombinant NGL1; assay type: cell-based
[7] = test system: virus infected neurons; test: Synapse-dependent viral transmission between neurons; assay type: cell-based; conditions: neurons only, FIG. 3A/3C
Experimental: as §1

[8] = test system: T cells from murine spleens; test: T cell activation with CD3/CD28; assay type: cell-based; conditions: recombinant NetG1 present during activation

Q: Which results are given for “NPYMSNNE (NetG1 polypeptide) [SEQ ID NO:26, NetG1 peptide corresponding to a domain known to engage with NGL1]”?
A: secreted IL-6 [1]: significant decreases; secreted IL-8 [1]: significant decreases; secreted TGF-β [1]: significant decreases

Q: What does the source list for “NPTMSNNE (NetG1 polypeptide) [SEQ ID NO:27]”?
A: secreted IL-6 [1]: significant decreases; secreted IL-8 [1]: significant decreases; secreted TGF-β [1]: significant decreases

B1: recombinant NGL1: recombinant Netrin G1 ligand (NGL1) protein added to EVs or cell cultures (protein)
chain: QTCPSVCSCSNQFSKVICVRKNLREVPDGISTNTRLLNLHENQIQIIKVNSFKHLRHLEILQLSRNHIRTIEIGAFNGLANLNTLELFDNRLTTIPNGAFVYLSKLKELWLRNNPIESIPSYAFNRIPSLRRLDLGELKRLSYISEGAFEGLSNLRYLNLAMCNLREIPNLTPLIKLDELDLSGNHLSAIRPGSFQGLMHLQKLWMIQSQIQVIERNAFDNLQSLVEINLAHNNLTLLPHDLFTPLHHLERIHLHHNPWNCNCDILWLSWWIKDMAPSNTACCARCNTPPNLKGRYIGELDQNYFTCYAPVIVEPPADLNVTEGMAAELKCRASTSLTSVSWITPNGTVMTHGAYKVRIAVLSDGTLNFTNVTVQDTGMYTCMVSNSVGNTTASATLNVTAATTTPFSYFSTVTVETMEPSQDEARTTDNNVGPTPVVDWETTNVTTSLTPQSTRSTEKTFTIPVTDINSGIPGIDEVMKTTKIIIGCFVAITLMAAVMLVIFYKMRKQHHRQNHHAPTRTVEIINVDDEITGDTPMESHLPMPAIEHEHLNHYNSYKSPFNHTTTVNTINSIHSSVHEPLLIRMNSKDNVQETQI
Q: B1 was tested. Which EV clustering [2] did it give?
A: enables small NetG1 positive (i.e., exomeres)

Q: And the “functional synapses between neurons and fibroblasts (virus spread into CAFs)” value [3]?
A: prevented

Q: And the “CAF blebbing (membrane ruffling or protruding)” value ([4]; 3D conditions that enable NetrinG1 expression in CAFs)?
A: induced CAF blebbing

Q: What about the “CAF blebbing in NetG1 KO CAFs” value ([4]; same treatment, NetG1 KO CAFs) of the same molecule?
A: blebbing was not observed

Q: What about the “effectiveness of CAF-produced EVs in rescuing starvation-induced death of PDAC cancer cells” value ([5]; EVs pre-incubated with recombinant NGL1) of the same molecule?
A: tends to decrease

Q: And the “clustering of EVs produced by treated CAFs” value [6]?
A: induced some clustering

Q: And the “number of EVs produced” value [6]?
A: production of increased numbers of EVs

Q: What about the “virus transmission via functional synapses between neurons” value [7] of the same molecule?
A: limited virus transmission

B2: recombinant NetG1: recombinant Netrin G1 protein added to EVs or cell cultures (protein)
chain: HYDLCKTQIYTEEGKVWDYMACQPESTDMTKYLKVKLDPPDITCGDPPETFCAMGNPYMCNNECDASTPELAHPPELMFDFEGRHPSTFWQSATWKEYPKPLQVNITLSWSKTIELTDNIVITFESGRPDQMILEKSLDYGRTWQPYQYYATDCLDAFHMDPKSVKDLSQHTVLEIICTEEYSTGYTTNSKIIHFEIKDRFAFFAGPRLRNMASLYGQLDTTKKLRDFFTVTDLRIRLLRPAVGEIFVDELHLARYFYAISDIKVRGRCKCNLHATVCVYDNSKLTCECEHNTTGPDCGKCKKNYQGRPWSPGSYLPIPKGTANTCIPSISSIGNCECFGHSNRCSYIDLLNTVICVSCKHNTRGQHCELCRLGYFRNASAQLDDENVCIECYCNPLGSIHDRCNGSGFCECKTGTTGPKCDECLPGNSWHYGCQPNVCDNELLHCQNGGTCHNNVRCLCPAAYTGILCEKLRCEEAGSCGS
Q: Which results are given for B2?
A: EV clustering [2]: only clusters exosomes; functional synapses between neurons and fibroblasts (virus spread into CAFs) [3]: prevented; effectiveness of EVs from NetG1 deficient CAFs (NG1KO) in rescuing starvation-induced death of PDAC cancer cells ([5]; recombinant NetG1 treatment of KRAS-transformed pancreatic cells): improves the effectiveness of EVs; T cell activation (proliferation) by CD3/CD28 [8]: activation is prevented; virus transmission via functional synapses between neurons [7]: limited virus transmission
